This is an account of results in the domain aggregation screens of Martell et al. (2025).

This data set is described as follows: soluble fraction after stress (log2 fold change); higher = more stays soluble; pooled small domains, quantitative proteomics. As to conditions: stress: pH 4. The essentials: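 Custom libraries of small protein domains were pooled and exposed to pH 4. High-throughput quantitative proteomics then measured the log2 fold change in the amount of each domain still soluble, with higher values meaning more stayed soluble. This soluble-fraction fold change stands for aggregation propensity.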

Some results are limits rather than exact numbers.

For “HMAHKRVDGTIVTPLTADTIVLRTGTHGEQPFEIRDTTRHKLESLQKGDMVILLIDTDNKVIDVAIPP”, the “soluble fraction (log2)” value is -0.263. Under “HMAHYYVRNGYYYYQRRIPLDLRKFYSGANIKASLKTKDPAIAALFVAKFDRQYDAEFAQRRLNPD” stands -0.277; under “HMAIELIDLIKNPETAPFSKLKYLKWMPEAEVTGFFNNLFQLNVTARETGDWSTVDKFLEDEGDRIAAQVA”, -0.215. Under “HMAIEMSTITKRVTSTGEIRYRALLQIRREDVNYTESRTFSKKSLAEAWLKKREVELEANPELLHQ” stands not below 0.43; under “HMAIGERIRFLRTLRRMTQKELGLAAGFPEKNASIRMAQYENGTRTPKAELTAVLAEILKVSPQALTV”, 0.173.

With “HMAIKNKNEQLEAIIKFADLRGEFKTADIEELLSIKSSRARLLISELVKIGKLESIGSNRNRRYHIK”, the “soluble fraction (log2)” value is -0.302. In the case of “HMAIKTGAVTGHGVKVRKGPSTNEKAIHDVLYGSRLQILEEKNGFLKAKFEDGTTGWISKQFVTTTDKNLL”, the “soluble fraction (log2)” value is -0.0244. For “HMAIKWTPEIEDEVSNKLKEKWSPEQISAWLKKNKSIMISHQRIYQFIVEDKMSGGNLYRNLRQ” the value was 0.172; for “HMAIPTTDSDKATDAQIKQIKLLGDIHPNLKLDAWLERNHVTWETLTREQAGNMMKAIKNKYGD”, 0.132; for “HMAISEAERARLQTKIKERNKMARWINTNLNPTSKIRNINPAETVRKLMTQDDADSLERSLDAFMEA”, 0.0822. Under “HMAIVNVEVPSLVGKTEQEARNLLTEAGLKVNVVNDEDESKNDGVVLRQSKDAGTEVQEGTTITITVNKVS” stands -0.467. “HMAKDDFMSFVKAVWPEFIEGAHHRVIAQKFNDLATGKITRLIVNMPPRHTKSEFASYLLPAW”: the “soluble fraction (log2)” value was -0.144.

For “HMAKDEYGLTSNQRAFADEYIRNKGNATQAYLFAYPHIKKENTAAVNASRLLRNAKVSKYIADRTKEIL”, the “soluble fraction (log2)” value was -0.146. With “HMAKIDSRKALIDQLTTTFTRAQLEELITKNELSTDARFFLSQWNAKGWIRKTAKNVYEKLR”, the “soluble fraction (log2)” value stood at 0.0107.

On to “HMAKLTPDQQELRAIRIELQMSQPDFADAININVPRLSSYEYGRTAGVPTSIMEAARELKRSMSR”, for which the “soluble fraction (log2)” value was -0.324. For “HMAKRDEIEAELPRFVATITQELAASRDVLSMIEHYKQNSGPVFSAELDVLTADMRSGSYEAALTRFEARF” the value was -0.0581; for “HMAKRKYKSFKDVAEFAQKLGIKSSTEWWAYVRGHEIPSDIPKDPSTYYKKEWTTWGDFLGTGYVSSA”, not below 0.43. As for “HMAKRTVPSVAEAIDNFRRQHRRMPSYAEMLPLLGVRSKSVVHFWINKLLENGLLEKDDKGYLTPGS”, the “soluble fraction (log2)” value is -0.241. Under “HMAKSPYDVLGLKEDAPFDEVKKRYRELVKKYHPDILMGRGESEEMIEKSTRKLQEINEAYETIKQRA” stands -0.0402; under “HMAKVDIPHEMVDQRIDEIVEEIKMNLESQNMSLDDYLKRMNQTEAQLRANYEATAAEQVRQGLV”, -0.982. For “HMALDSQEVGYNIEARGARPVVAQLGKAGQFSAVENSIRLGDDNWIALAPKLAGGGNAGFTAGIKSALS” the value was -0.293; for “HMALIGSNLRHLRNERKLSQQELADLIRVGRTTIANIEANLANPGHKTLLEIVKVFDITIDELLHTDLTK”, -0.684. In the case of “HMALKPKITIEELIRILNESKDLSDSETAKILNKDYTTAKYGKEFTSINVQGARYALDIATNTS”, the “soluble fraction (log2)” value is -0.323.

In the case of “HMALLSNEDIMFNLEFNRDLAVASNDGVSRDEFLRNKYGISEEEYNMLRARYGDGLNAARIKEYVGQRD”, the “soluble fraction (log2)” value was -0.36.

Regarding “HMALLSNTVDELHAGMRLDSYLFESGLYPSRSFAVKQIEAGKVFLNGDAVTKKTLVSNGDFIVYELEE”, the “soluble fraction (log2)” value is -0.506. For “HMALMLGGLIVYLNTTAPRDDIDLIELSKDTKAMAAFGNKLASPDYNGKQFALDWHELSRDEIMSKYFS”, the “soluble fraction (log2)” value was -1.82.

For the sequence “HMALPDWLDPEAWAAWKRHRKAIRKPLTEDAVALSIRELAKLRDEGYGPTSVIENAILKGWQGLYPPK”, the “soluble fraction (log2)” value was 0.143. Under “HMALPGESVYVSILQSGSNRDQGVGYLDDGTMVVVDGAIKDIGKSIEVVINKSHQTVAGKMLFAKKVA” stands -0.144. For “HMALPQPDDDRQDTKKRILDMAEDLLLTRGFNAFSYQHISSELGMKNAAIHYHYPKKNDLGVAVIQRYRRR” the value was -0.178; for “HMALQDKYAELLTAANTMGVTNLAVAEKDGTLHVSGTAKSTADYDSLWALYDKIDPNMASGDLMMNI”, -0.0324; for “HMALQDKYKELTDAATAAGVTDLQVREQDNVLYIDGTAPSGAVKDQLWAIYDKIDPNFVSGDLVLNVNVD”, -0.49. For “HMALTLDEARTQGRVGETFYGYLVALKTDAETEKLVNDINAERKASYQQLAKQNNVSVDDIAKLAGQKLV” the value was -0.113; for “HMALWFDEWKKYQDTIASADLLPDKAERDALIAQAEDRFNYWMDIYPRSASLNHSFDDLYEEHRRKIE”, -1.33. As to “HMAMDYEGFKKSVYALTSIDLNAYKERQMKRRIDTLIAKNKYNGYEDYTAAIKKDKALFEEFVNYLTIN”, the “soluble fraction (log2)” value was -0.521. Under “HMAMMTKQRLIQLIHIARNDLQMDEDTYRQMLQGLTGKASTKGMDTPQLNRVLESMKKKGFRIK” stands not below 0.43; under “HMAMNLQETVLMQLRDLILRGTFEPGQRLSEQPLAERLKASRTPVRSALVTLEQEGLIEASETGKYLVRQ”, -0.845.

As for “HMAMTNEEREALISEIKQTVNNSIDLKKDISDTEIKEAITQAVFERSEKSYLSIAEKQDIITAVFNSMR”, the “soluble fraction (log2)” value was -0.159. Turning to “HMANADVVLVDLDKEYTVDAAKFHSVVKHSPFNGFAVKGAPVLTIVRGTVVAENGEVVGQPGHSKMVRP”, the “soluble fraction (log2)” value is -0.0368. On to “HMANEGWDIYKLDIRNHKQPNGEYYSEKEIQSTINNTFGKGSFNVDWKKYEKDKEYREKTNYYYFQAKYFV”, for which the “soluble fraction (log2)” value was -0.24. Take “HMANHIAAIHVLKSKLQMSDSDYRVLITGLTQKASTKDMSDIERQRVRDHMQGLAERMGVVK”: the “soluble fraction (log2)” value was found to be 0.0887. Under “HMANIAVTIPTGSSGDRIADILLQAGLIKDKQDFNQAVIAAGAEGKLRAGYFVIPSNATPAEIISILT” stands -0.253.

Turning to “HMANILKHKNKDGVITSYTIRVYHGYDEAGKRLRPYTMNYKPAPNMTARQIEKELNRQAVQFEEQIKNGYA”, the “soluble fraction (log2)” value is -0.182. Under “HMANKLTSTNLAKQHKMGLSEMYAELMNSGYLIEKDGKYELTPLGISIGGESKPNRYKKGEFYFLWPSDIS” stands 0.22; under “HMANLLNLREIPVANIRPELTMFLIPGENITQAFQTIRDQVVFTNKRLIVANVQGLTGKKVSYTSYPY”, -0.251. For “HMANPFQELTERELDVLRQVAAGKNNREIAEALFIGEKTVKTHISNILSKLHLADRTQAAVYAWQQGMM” the value was -1.14.

For the sequence “HMANTVVMPNLLGKTMTEAKIELKELGIDITLKGSESSSKYSAGQIMEQNIAEGTKVEVGSSVEVTIAGS”, the “soluble fraction (log2)” value is 0.334.

For “HMAPAPDEAFAEFVRSSAPSLTRTAWLLTGDRGHAQDLVQNAYAKTLQAWGRLDAEGALAYTRRAVIT”, the “soluble fraction (log2)” value was -0.0327. Under “HMAPDGIEDKEGWLKVLPMITNLSIQMQNLQARGMDYEHIRNLLHETLLRYDDRIDSNLFIPNV” stands -0.198; under “HMAPDNDELEKAKKIVNAFIEAKAKGLGVVSLGTKMIDAPVVKRAQKIIDQTIVMGKLSLNWQDEFFN”, -0.32; under “HMAPEVTVHDGSIVVRGHVGGVTVYDESGRQIASVQSRGAVAIPVPAGHTYLYIVKPEGKPAIKVRAAH”, -0.0212.

For the sequence “HMAPKSALKIIEQISNNPRATMTDLANLTGYSRRWVAQTIKRLQEENIIKRIGSDKSGYWEIIG”, the “soluble fraction (log2)” value came to 0.417. As to “HMAPLATLEADGNGAVKLPNLAGHAIREVAAALGGANLALIPIGSGTSWKQNPAPGTILHKGDTVTVYF”, the “soluble fraction (log2)” value was -0.353.

Regarding “HMAPLEPLTDRETEMLVRLANGASNKVMARESFVSENTIKFHLKNIYAKLGVTSRLQAIAAARNQGLI”, the “soluble fraction (log2)” value is -0.0342. Regarding “HMAPLRTQYVNVNYANAAEIKTLISGADKEVGSLLSERGSVVVDKRTNTLIIQDTQARLNDIGDLIEQLD”, the “soluble fraction (log2)” value was -0.52. Take “HMAPMYGEFENVRLTDAQLDKLNARFPPEQVQREIEALSGYMRSKGKRYADHYATLLNWLRRDFPP”: the “soluble fraction (log2)” value is -0.112.

Consider “HMAPNVEENSKLIGEIGMTLTPLRPSGIATINNRRVDVVSNGDFIDQDERVMVKRVQGARVVVIPV”, for which the “soluble fraction (log2)” value turned out to be 0.1. Turning to “HMAPPDFTTFMRNYQDMVYSTAVRLIGNETQAEDIAQEVFIKAHAHFENLRTSPSAGGWLKTVATNLSIN”, the “soluble fraction (log2)” value was -0.949. Under “HMAPQAETLLRQVMALPSKDRAVLYLHYYEGFSTREVGDMLHISQSAVTTRLLRARKKLKEIL” stands -0.754. In the case of “HMAPRLTERERQVLQLIAEGLTSMQIGDRLHIAASTVDVHRRNLMRKLDLHNVADLTRYAITQGISP”, the “soluble fraction (log2)” value was 0.00348. Regarding “HMAPRQDIAYYTVKPGDTVLAIAEKFGLQPETLMWSNSIIEQNPDRLSIGDELRILPVDGVLHVVK”, the “soluble fraction (log2)” value was -0.666. For “HMAPRSSAVYFYLSQVALKKNQPRKAEAMARRGLTVSQDANRRRALWQLILRSGQAQNNTRVIREAQQAL” the value was -0.0754; for “HMAPSLSEYAYEEIKHAIERGVYPPGAKLITQEIADRLGISRTPVVAAVNRLTAEGYADAVPQHGIFVK”, 0.0288. Turning to “HMAPVLTRREHEVLHLLTDGLDNRTIARNLFISEATVKFHLHNIMGKFGVHRRAALVSTALRG”, the “soluble fraction (log2)” value is -0.182.

Take “HMAPVTPEERAQAMEEYKAMVTIEGYTPPKNIIEQNYKRGLWSETMLNMAVTKGAITEAEKLEIMN”: the “soluble fraction (log2)” value was found to be 0.0947. For “HMAQIVNLPRKNVNGASYYYYEVQPKETIYSISRKLGVSGAEIQRHNPSVADGLKIGQVLYFPAEG” the value was -0.0603; for “HMAQLPADMSKVKSADISEAQLQEFIQKATSSGYNMNQIEMEFAKRGMSENEVSLLRPRLRRLMAS”, 0.212. Turning to “HMAQLSDDEQAIIDTITRRGDATMSELIASVNVSTPRLMSMLIDMEFRSLITALPGGRYQIRLIN”, the “soluble fraction (log2)” value was -0.464. For the sequence “HMAQLTPREREVLVLIAEGKSNKEIADQLNIGVRTIETHRERIMRRLNIHSVAGLTKYAIANGLVTL”, the “soluble fraction (log2)” value was 0.0239. Under “HMAQPIPSGADIRAAREAAGMTLRRFAEYIAGPDFSTWSRYETGKPIRVKNISPEVWQRVRKFIAQNKG” stands 0.129.
